Measurements from patent US20140256614.

Target: T1, MK2-activating peptide (transduction domain YARAAARQARA coupled to a Kaposin-derived region)
T1 chain: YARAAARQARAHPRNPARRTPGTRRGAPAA

B1: MK2 (endogenous, in mouse embryonic fibroblasts, MEF) (protein)
chain: MLSGSPGQTPPAPFPSPPPPAPAQPPPPFPQFHVKSGLQIRKNAITDDYKVTSQVLGLGINGKVLRIFDKRTQQKFALKMLQDCPKARREVELHWRASQCPHIVHIVDVYENLYAGRKCLLIVMECLDGGELFSRIQDRGDQAFTEREASEIMKSIGEAIQYLHSINIAHRDVKPENLLYTSKRPNAILKLTDFGFAKETTSHNSLTTPCYTPYYVAPEVLGPEKYDKSCDMWSLGVIMYILLCGYPPFYSNHGLAISPGMKTRIRMGQYEFPNPEWSEVSEEVKMLIRNLLKTEPTQRMTITEFMNHPWIMQSTKVPQTPLHTSRVLKEDKERWEDVKEEMTSALATMRVDYEQIKIKKIEDASNPLLLKRRKKARAVEDAALAH
- phosphorylated HSP27 by immunoblot, time course at 50 µM peptide, MEF: significant MK2 activation was observed by 15 minutes of treatment
